Test results as given in FireProtDB (doi:10.1110/ps.9.2.387).

Settings: Escherichia coli (strain K12), Thermal, DSC, NaCl 100 mM, reversible: yes(>85%)
[1] = pH 5.5, Sodium cacodylate 10 mM

Chain of Cold shock protein CspA wild type, P0A9X9 (P0A9X9 whole entry): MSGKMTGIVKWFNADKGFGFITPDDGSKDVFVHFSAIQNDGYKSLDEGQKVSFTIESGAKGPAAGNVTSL

Cold shock protein CspA wild type, P0A9X9
Tm (pH 4, Sodium acetate 10 mM): 33.2 °C | unfolding enthalpy (calorimetric) (pH 4, Sodium acetate 10 mM): 22.7 kcal/mol | Tm (pH 4.5, Sodium acetate 10 mM): 42.1 °C | unfolding enthalpy (calorimetric) (pH 4.5, Sodium acetate 10 mM): 28.9 kcal/mol | Tm (pH 5, Sodium acetate 10 mM): 47.7 °C | unfolding enthalpy (calorimetric) (pH 5, Sodium acetate 10 mM): 33 kcal/mol | Tm [1]: 54.4 °C | unfolding enthalpy (calorimetric) [1]: 39.9 kcal/mol | Tm (pH 6, MOPS 10 mM): 54.1 °C | unfolding enthalpy (calorimetric) (pH 6, MOPS 10 mM): 39.9 kcal/mol | Tm (pH 6, PIPES 10 mM): 53.1 °C | unfolding enthalpy (calorimetric) (pH 6, PIPES 10 mM): 36.1 kcal/mol | Tm (pH 6, Sodium cacodylate 10 mM): 56.5 °C | unfolding enthalpy (calorimetric) (pH 6, Sodium cacodylate 10 mM): 44.9 kcal/mol | Tm (pH 6, Sodium phosphate 10 mM): 55.9 °C | unfolding enthalpy (calorimetric) (pH 6, Sodium phosphate 10 mM): 39.4 kcal/mol | Tm (pH 6.5, HEPES 10 mM): 56.5 °C | unfolding enthalpy (calorimetric) (pH 6.5, HEPES 10 mM): 43.5 kcal/mol | Tm (pH 6.5, MOPS 10 mM): 56.1 °C | unfolding enthalpy (calorimetric) (pH 6.5, MOPS 10 mM): 39.9 kcal/mol | Tm (pH 6.5, PIPES 10 mM): 55.2 °C | unfolding enthalpy (calorimetric) (pH 6.5, PIPES 10 mM): 41.4 kcal/mol | Tm (pH 6.5, Sodium citrate 10 mM): 56.8 °C | unfolding enthalpy (calorimetric) (pH 6.5, Sodium citrate 10 mM): 45.2 kcal/mol | Tm (pH 6.5, Sodium phosphate 10 mM): 56.1 °C | unfolding enthalpy (calorimetric) (pH 6.5, Sodium phosphate 10 mM): 43.3 kcal/mol | Tm (pH 6.5, imidazole 10 mM): 53.7 °C | unfolding enthalpy (calorimetric) (pH 6.5, imidazole 10 mM): 39.2 kcal/mol | Tm (pH 7, HEPES 10 mM): 57.6 °C | unfolding enthalpy (calorimetric) (pH 7, HEPES 10 mM): 47.6 kcal/mol | Tm (pH 7, MOPS 10 mM): 56.4 °C | unfolding enthalpy (calorimetric) (pH 7, MOPS 10 mM): 40.6 kcal/mol | Tm (pH 7, PIPES 10 mM): 55.7 °C | unfolding enthalpy (calorimetric) (pH 7, PIPES 10 mM): 41.4 kcal/mol | Tm (pH 7, Sodium cacodylate 10 mM): 57 °C | unfolding enthalpy (calorimetric) (pH 7, Sodium cacodylate 10 mM): 47.3 kcal/mol | Tm (pH 7, Sodium citrate 10 mM): 57 °C | unfolding enthalpy (calorimetric) (pH 7, Sodium citrate 10 mM): 46.4 kcal/mol | Tm (pH 7, Sodium phosphate 10 mM): 57 °C | unfolding enthalpy (calorimetric) (pH 7, Sodium phosphate 10 mM): 43.3 kcal/mol | Tm (pH 7, imidazole 10 mM): 55.8 °C | unfolding enthalpy (calorimetric) (pH 7, imidazole 10 mM): 40.1 kcal/mol | Tm (pH 7.5, HEPES 10 mM): 57.8 °C | unfolding enthalpy (calorimetric) (pH 7.5, HEPES 10 mM): 49 kcal/mol | Tm (pH 7.5, MOPS 10 mM): 56.2 °C | unfolding enthalpy (calorimetric) (pH 7.5, MOPS 10 mM): 41.4 kcal/mol | Tm (pH 7.5, PIPES 10 mM): 56 °C | unfolding enthalpy (calorimetric) (pH 7.5, PIPES 10 mM): 42.3 kcal/mol | Tm (pH 7.5, Sodium citrate 10 mM): 57.3 °C | unfolding enthalpy (calorimetric) (pH 7.5, Sodium citrate 10 mM): 48.3 kcal/mol | Tm (pH 7.5, Sodium phosphate 10 mM): 57.1 °C | unfolding enthalpy (calorimetric) (pH 7.5, Sodium phosphate 10 mM): 46.9 kcal/mol | Tm (pH 7.5, imidazole 10 mM): 55.9 °C | unfolding enthalpy (calorimetric) (pH 7.5, imidazole 10 mM): 39 kcal/mol | Tm (pH 8, MOPS 10 mM): 57.1 °C | unfolding enthalpy (calorimetric) (pH 8, MOPS 10 mM): 42.5 kcal/mol | Tm (pH 8, imidazole 10 mM): 56.8 °C | unfolding enthalpy (calorimetric) (pH 8, imidazole 10 mM): 38.2 kcal/mol | Tm (pH 8.5, HEPES 10 mM): 56.5 °C | unfolding enthalpy (calorimetric) (pH 8.5, HEPES 10 mM): 42.1 kcal/mol | Tm (pH 8.5, Sodium borate 10 mM): 57.7 °C | unfolding enthalpy (calorimetric) (pH 8.5, Sodium borate 10 mM): 44.5 kcal/mol | Tm (pH 8.7, Sodium borate 10 mM): 57.6 °C | unfolding enthalpy (calorimetric) (pH 8.7, Sodium borate 10 mM): 43.7 kcal/mol
